In patent US8790905B2, “Fructosyl peptide oxidase” (Kyowa Medex Co., Ltd, priority 2008, dated 2014):
Changes are numbered by the printed parent chain.

B1: Emericella nidulans KY125 fructosyl peptide oxidase variant FPOX-9 (Ser71Tyr, Ile94Met, Glu104Lys, Lys109Arg, Phe269Ile), SEQ ID NO: 1 (Aspergillus nidulans; … (protein)
chain: MAPRANTKIIVVGGGGTMGSSTALHLLRAGYTPSNITVLDTYPIPSAQSAGYDLNKIMSIRLRNKPDLQLYLEALDMWKNDPLFKPFFHNVGQMDVSSTEEGIKGLRMRYQSLLDAGIGLEKTNFLLESEDEILAKAPHFTREQIKGWKGLFCGDGGWLAAAKAINAIGQFLKEQGVKFGFGGAGTFKKPLFADADEKTCIGVETVDGTKYYADKVVLAAGAWSSTLVDLEEQCVSKAWVFAHIQLTPAEAAAYKNTPVIYDGDYGFFIEPNENGIIKVCDEFPGFTHFKMHQPYGSPVPKPISVPRSHAKHPTDTYPHASEVTIKKAINRFLPRFNDKELFNRAMCWCTDTADANLLVCEHPRWKGFYLATGDSGHSFKLLPNIGKHVVELLEGRLESVFKDAWRWRPGSGDALKSRRAAPAKDLADMPGWRNEAKM
B2: Emericella nidulans KY125 fructosyl peptide oxidase variant FPOX-15 (FPOX-9 with Met58Phe, Ser59Gly, Gly105Lys, Gly183Glu, Asn272Asp, Pro302Leu), SEQ ID NO: 3 … (protein)
chain: B1 chain with M58F, S59G, G105K, G183E, N272D, P302L

Key:
Assay type in all cases: biochemical, Emericella nidulans KY125
[1] = substrate: CC(C)[C@H](NCC1(O)OC[C@@H](O)[C@@H](O)[C@@H]1O)C(=O)N[C@@H](Cc1c[nH]cn1)C(=O)O; assay: Km values of the fructosyl peptide oxidase FPOX-9 towards each type of substrate; conditions: other: Tris buffer (pH 7.5), 37° C.
Experimental: (§1) Substrate specificity of the novel FPOX-9 obtained in Example 2 to glycated peptides and/or glycated amino acids were measured using the following Reagent 1 to Reagent 3.
(§2) Herein, the FPOX-9 solution used was the one prepared in Example 3.
(§3) As substrates, glycated peptide α-FVH as well as glycated amino acids ε-FK and α-FV were used.
(§4) α-FVH solutions and α-FV solutions were prepared using Tris buffer to obtain each of the following concentrations in Reagent 3: 0, 0.05, 0.1, 0.5, 1, 2, 5, and 10 mmol/L. ε-FK solutions were prepared using Tris buffer to obtain each of the following concentrations in Reagent 3: 0, 1, 2, 5, 10, 20, 40, 50, 80, and 100 mmol/L.
(§5) 170 μL of Reagent 2 was added to 10 μL of Reagent 1, and after the reaction at 37° C. for five minutes, 20 μL of Reagent 3 was added, and the reaction was further continued at 37° C. for five minutes, a total of ten minutes. The absorbance at 546 nm (main wavelength)/800 nm (sub-wavelength) for 0 mmol/L at 5.4 minutes after starting the reaction was defined as A0′ (Abs), and the absorbance at 546 nm (main wavelength)/800 nm (sub-wavelength) for each substrate concentration at 5.4 minutes after starting the reaction was defined as A0^x (Abs), and ΔA0 was calculated according to Equation (I). (Mathematical Expression 1) ΔA0=A0^x−A0′(Abs) (I)
(§6) The absorbance at 546 nm (main wavelength)/800 nm (sub-wavelength) for 0 mmol/L at 6.6 minutes after starting the reaction was defined as As′ (Abs), and the absorbance at 546 nm (main wavelength)/800 nm (sub-wavelength) for each substrate concentration at 6.6 minutes after starting the reaction was defined as As^x (Abs), and ΔAs was calculated according to Equation (II). (Mathematical Expression 2) ΔAs=As^x−As′(Abs) (II)
(§7) The enzyme activity (U/mL) for each substrate concentration was calculated by substituting the obtained ΔA0 and ΔAs total amount of reaction solution (0.2 mL), molar extinction coefficient of TOOS (39,200), reaction time (1.2 minutes), and the light path length of the reaction cuvette (0.5 cm) into Equation (III). […]

[2] = substrate: N[C@@H](CCCCNCC1(O)OC[C@@H](O)[C@@H](O)[C@@H]1O)C(=O)O; assay: as above; conditions: other: Tris buffer (pH 7.5), 37° C.
Experimental: as §1, §2, §3, §4, §5, §6, §7

[3] = substrate: CC(C)[C@H](NCC1(O)OC[C@@H](O)[C@@H](O)[C@@H]1O)C(=O)O; assay: as above; conditions: other: Tris buffer (pH 7.5), 37° C.
Experimental: as §1, §2, §3, §4, §5, §6, §7

[4] = substrate: CC(C)[C@H](NCC1(O)OC[C@@H](O)[C@@H](O)[C@@H]1O)C(=O)N[C@@H](Cc1c[nH]cn1)C(=O)O; assay: Km values of the fructosyl peptide oxidase FPOX-15 towards each type of substrate; conditions: 37° C.
Experimental: (§8) The substrate specificity of FPOX-15 obtained in Example 2 to glycated peptides and/or glycated amino acids was measured using the following Reagent 1 to Reagent 3.
(§9) Herein, for the FPOX-15 solution, a solution produced by four-fold dilution of the solution obtained in Example 3 was used.
as §3
(§10) α-FVH solutions and α-FV solutions were prepared using distilled water to obtain the following concentrations in Reagent 3: 0, 2, 2.5, 3, and 3.66 mmol/L. ε-FK solution was prepared using distilled water to obtain the following concentrations in Reagent 3: 0, 20, 30, 40, and 50 mmol/L.
as §5, with “150” for “170”, “5” for “10”, “wavelength)/700” for “wavelength)/800”
as §6, with “wavelength)/700” for “wavelength)/800”
(§11) The enzyme activity (U/mL) for each substrate concentration was calculated by substituting the obtained ΔA0 and ΔAs, total amount of reaction solution (0.2 mL), molar extinction coefficient of EMSE (33,800), reaction time (1.2 minutes), and the light path length of the reaction cuvette (0.5 cm) into Equation (III). (Mathematical Expression 3) Enzyme activity(U/mL)={(ΔAs−ΔA0)×total amount of reaction solution(mL)}/{molar extinction coefficient ε/1000×amount of enzyme solution(mL)×0.5×reaction time(min)×light path length(cm)} (III)
(§12) For each of the substrates α-FVH, ε-FK, and α-FV, a plot was produced with substrate concentration (mmol/L) on the horizontal axis and the corresponding enzyme activity (U/mL) on the vertical axis, and the substrate concentration corresponding to ½ of the maximum enzyme activity was calculated as the Km value (Michaelis constant).

[5] = substrate: N[C@@H](CCCCNCC1(O)OC[C@@H](O)[C@@H](O)[C@@H]1O)C(=O)O; assay: as above; conditions: 37° C.
Experimental: as §8, §9, §3, §10
as §5, with “150” for “170”, “5” for “10”, “wavelength)/700” for “wavelength)/800”
as §6, with “wavelength)/700” for “wavelength)/800”
as §11, §12

[6] = substrate: CC(C)[C@H](NCC1(O)OC[C@@H](O)[C@@H](O)[C@@H]1O)C(=O)O; assay: as above; conditions: 37° C.
Experimental: as §8, §9, §3, §10
as §5, with “150” for “170”, “5” for “10”, “wavelength)/700” for “wavelength)/800”
as §6, with “wavelength)/700” for “wavelength)/800”
as §11, §12

[7] = other: pH 6.0, sodium dihydrogen phosphate, pH 6.0
[8] = other: pH 7.0, sodium dihydrogen phosphate, pH 7.0
[9] = other: pH 8.0, sodium dihydrogen phosphate, pH 8.0

Protein | Km [1] | Km [2] | Km [3] | Km [4, 7] | Km [4, 8] | Km [4, 9] | Km [5, 7] | Km [5, 8] | Km [5, 9] | Km [6, 7] | Km [6, 8] | Km [6, 9]
B1 | 500 µM | 4000 µM | 600 µM | – | – | – | – | – | – | – | – | –
B2 | – | – | – | 400 µM | 500 µM | 800 µM | 23200 µM | 19200 µM | 9600 µM | 200 µM | 300 µM | 300 µM
